# Test: soluble fraction after stress (log2 fold change); higher = more stays soluble; pooled small domains, quantitative proteomics
# Details: stress: 75 degC
# 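Further: 20 min heating vs room temperature control held 20 min.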
row,Sequence,soluble fraction (log2)
1,HMQDGVNLENIEQKLSTLGVGKAQYFLQNVGGNKFNAYMALNTDGVEGYQKGSDTLIEIKNVE,0.215
2,HMQDKIWVVDETQLYPKLIEAMSEGKAVIHDGVAYWAEGSGKTGVIQHLPFKETTVQNVEEAIKLAQ,0.0953
3,HMQDKLLRKKEVLEMVSITNSTMYRMIGSGQFPRPIRLDNANINSGVRWKLSEINTFIEQRF,-0.513
4,HMQDLAKRWVEEFGDLLYKYTLPRVSDSGIAKDLVQETFLAAWRNIDNFKGEASEKNWLFTILKNKIIDH,-0.382
5,HMQDLTAQQQAILSFLKEHPKATRKEISENIPNITEDNIRYNLSQLQELGFVKSMGDSFIRIAI,0.534
6,HMQDNDLKNQIENVLRTYPDNVFTVEKIADVLRSHGSAAFKLIVQELASLERDKVAVVTEDGKFQLNPD,0.261
7,HMQDPTAVISRVLEERKHQPGALLPILHGIQDALGYVPREAVAQIAQALNLSRAEIHGVVSFYHHFR,-0.59
8,HMQDPVWVDWLGENDWFQKDPKRRGLANGYSEILRAEQPELVGRPFLDEVTRRVQADFPELFG,-0.944
9,HMQDTRSHARKMLAAIEALLEGRSGSDIQAYTIHNRSITKMTVPELVKWRSYYQQQVRSEDAAASLA,-0.61
10,HMQDTYLYPVQHNGKVRLQVELPAKGLPEDLVRLALAHPKVVEWLNGRIPTKTIAVPGRIINMVLPNQ,-0.638
11,HMQDVWEPFLAKGYVFADGMLTKLIHKRGDVYKTQEIGSDKIIYVIKDGDTFAHGKTVKAAMLDLAFKKS,-1.5
12,HMQDYISAEEAKSAALSASQVDSAGAAFSAAELGEKNGIPYYEVAFTADGLEYRYAIDAQTGTVIESSSSG,0.156
13,HMQEDKVRKLTEMGFAEDQAREALRKHDWDETMALNSL,0.262
14,HMQEDSNISFVKIHVDADSGMAHKKLSKLSLPTGFLIVVIIRGEENIIPNGETEVLPGDLLVAAAREFEN,-1.31
15,HMQEEELYPRLEEVINQHRGKGEDLIMVLHKAQNLFGYLPRRAQEMVAEGLNVSLNEVYGVITFYNFFST,0.194
16,HMQEERDISFIKIHLEPGHPWRGRALRELMPLKDLLIVMVVRGEDTIVPNGDTRLEEGDLLVLAAYPFEE,-0.834
17,HMQEHAHLWRLMEDNRSFKADYIAFENGIVLLQNLSSGKISQYPITDFSIEDQLLILKRHELTAHINAN,-3.3
18,HMQEIKPEPISDGRVWKEGMWATTPLGIEGQLLSDPDEKGMVQLGYGNMRININIQDLDPSR,-0.104
19,HMQEISQEEALATVLKDLSLTEADLKDLQITREEDKYKILFSKGQTAYDVLVSAKDGQLLQSKQETI,-0.313
20,HMQEKQIIDGREFYIHQVERGITLYSIAKQYNVKVADIQAENPFLEAGLQPGQTLKIPLDKVETVQEIK,-0.218
21,HMQEPIAVPDFINKSAVDVLVNPVFTQNFKLVSEDVYDDKVPEGYIVGQSVKSDTLVQPGTEIVIYV,0.224
22,HMQEPNYQPLMQNIKSQDLEEVTRLLSLNDVKFKIDHRTGLLLVESSRVYEAKMKLAATGITD,-1.07
23,HMQEPVHFTRRERQVLSLILSGQATAEIAKTLGIANATVTTYKKSLYSKSGTNSLSRLLIWAMVRR,-0.463
24,HMQEPVYRPVFPGMTDADRQSAMEALKEGGFSPRLNRQTGQLEVDASGYHEAKIYLASQGIPAE,0.0608

row,Sequence,soluble fraction (log2)
1,HMQERNYIVRRGDTLWDLAKTYYGSGTKYTVIYDANRDNIEAEAKRRGKQSSNGGYWIYPGTELTI,-0.348
2,HMQERTVVKGVVVQVSRDEAYVDIGYKQEIPVSKRDLAVPAPDDARDVVKVGDEIDVYIKSLGGDNGG,0.109
3,HMQESTPGEGYKWREDVLLRVMSQNGIDESLRDEFVRHAVNYDIDDNMYLKKAEIESAAEAWVLENS,0.172
4,HMQESVTVSAQALRRLLEKGDGDAALLYLALLRHHGTIQPRALAGELRWERPRIEAAEEALRQMGLIA,-0.48
5,HMQETMTNDEVISLTKAGLSSSIIIGKIRSSATNFDLSTDSLIKLKQAGVSDETVAAMLEAKS,0.0249
6,HMQGAARGMLFAQAQRWMTKFRIDPQQADRITQAALDPAQTDAILREVRRGYGPSAERALRGIIRRARRA,-1.94
7,HMQGEAMQETVKKLDAFLQDNSVSMSALARALGVSPSLISQFRSGSYKGDSQAIAAKINSYIDNHNKKSK,-0.0127
8,HMQGEKDDLWREVLDNPDAWWDNRERKNAPGGNPRYPDFKHKDSQTPLWIESRDTPQWAIDALL,0.259
9,HMQGNGKVATELLKDIIASDNLYINAMRMLVMHYNSKGTNQVEMVKLLHNILDLVPDDEYANEILKSAKKA,-0.0872
10,HMQGPDPYAVLGIDRHADERAIKRAYRKLISEHHPDRLGDLPEDMRKRAESRASEINAAYDRIKEARGF,0.0522
11,HMQGQVLQETARKARSQLDSEIPGFNDALYQNLIKSSENYGYKAEEVAQWVDPRAIKVLNDAYQFQQLKAG,-0.172
12,HMQGTTTELLIQKSALYEELNDPEKALNAMFDAFEMDSLNVNVLHRIVSLLLDKEENEKAILYNQLIIDH,0.0862
13,HMQHQSGLKSGEFEAISQQLQALLKENPLSLQEIKDKMQVTENHLIKVVSYLVSEEIIRQENGYLK,-0.976
14,HMQIAGLDDIDNRIIDLLLKNGRASYSEIGAAVGLSRTAAKNRIRALEASGIIRGYQAILDPQA,-0.708
15,HMQIDDSVELSAIVEKLLAANPEQVEQLKNGKTKVLGYFVGLAMKETQGRANPQKVNELIQTHL,-0.519
16,HMQIDRLFDIVYTLLRKKSATAAELAERFGVSKRTILRDIETLSVAGIPILTSPGKGGGVSISSSF,-0.892
17,HMQIIETTVGRVLFNEKVPEAAGYINEVLTKKSLRDIIHGILKKTSVPETAAFLDEIKSLGYNFAF,0.0925
18,HMQIIEVPYSEFLKKLESGQISEVSRDSYQIVFTDRSQPPIIYKTGLMEDPGLVDKMQEAGVTFTSP,0.256
19,HMQIKNVDYGTFLDMLDEKNVKEVEIEDEQIVFTDNADPTGYYTTGRMEDPDLVDRLHNSGATFSAI,0.134
20,HMQILLASHAELAKGILSAVELIAGTQQNLKAYSAYTEAVDVHFKDQMLQDLNKMDPEDEVIL,0.137
21,HMQINLSEWVLAAREYAGPEMTQEKLAEHLGRTKANVSAMENGRSKPSFEQMMEIHRVTGYPLPYQ,-0.303
22,HMQISDAGALLDAVRRVLAENPAQVEQFRAGKEKVMGFLVGQVMRATGGKANPQMLNDVLREELS,-0.196
23,HMQISDEGELSGIVRKIIDANPQSVADYKAGKKKAIGFLVGQIMIETKGRANPASVNELLIKKLE,-0.434
24,HMQISDNTILEDAVSRIIDENPKSVSDYFQGKEAVVGFFIGQIMRETKGTANPKIAREIVISHLEAI,-0.576

row,Sequence,soluble fraction (log2)
1,HMQISGIHLYERRITKDDEWAERKLSEISLAGSLVILILRNEHVVIPNGETVLKENDLLYISD,-3.66
2,HMQISGSEELEKIVQTVLEKNTDVVEEYKSGKTKVFAFLMGQVMKESRGKANPRLAKDILEKFLA,-0.429
3,HMQITAPVQKIDGVEYYMHKVEQGQTLYSISKLYNVGVKEIQKANQLGTEGIQLGQVLKVRKGG,-0.2
4,HMQIYLTPEQFKIIDFMEQMGKITVKDVMDILNIPKRTAQLHLQKLKTLKMIAQTGKGPSSAYLL,-1.11
5,HMQKDAYVPDIISKLKSSRMIVVEGTIYPLLTRLKNTGLLSYRWEESLQGPPRKYYSITEQG,0.268
6,HMQKDYKTRLQEYYAKVGKKVNYMDSSTGPDHDKKFQTQVFLDKEIIGVGEGKSKKSSQQEAAKQALEKI,0.267
7,HMQKFINQEHEKAYNLMLEKDYQQALKIFDDLIYLFPNEANLLSDRGVIFIHLNKKEAALQDFDQAVF,-1.97
8,HMQKIEKVDYGTFLKMIENGEIDQVNLTEKKISFTTDKDAETVYETGRVEDPNIVDRLYQADVEFTQEI,0.598
9,HMQKIENYDQFVQAFKRLSGLDLKLYKENQMKRRINNFINNHGFKENYDQFFQAITGNKELYNAFFKHLTI,-0.527
10,HMQKKYLAVKEYLLEQINSGAYQPDEPIPPEREMAAMLGVNRMTLRRAVEELMYEGLLIRKKGSGTFLTK,-2.03
11,HMQKLSPKQRRGNIIELIKENPTITAKNISTIFNLNQRTIERDLAKLTEEGYIKYEGSSKDGKWVFL,-0.134
12,HMQKNKSVLFKDIVIAFNQNPKKLFNYKQLAADLDIHSEAERMLISQLLNDLKDQNFLEEVERGKYKLKL,-0.766
13,HMQKPIKPVKMHTVGPKENLSSIGRMYEVNGRVLANYNNIDYDKGLTIGQVLKIPPKGTTLEQVT,0.853
14,HMQKTIDWSQVDKEQYLSAMERSPVNDLEIKAILAKALTSDINNRELFMKGLDHSYYFEGYQLFKSE,-0.526
15,HMQKTQVVEVAGKSYQLTKMDARTGSYVAFKVAGVLAPSGGKTAEMAAALMGMPRKDFDELQSLLLRTV,0.025
16,HMQKYSTIIGVIELRQSGIGYRTTKKRYNIGNSTVTLIMNRFHELGLSLEELKAMPPKKVEEAFYPPE,-3.22
17,HMQLASILDDIPGIGKKRKENLLTHFGSFSKIQSADIDALAEVPGISRDLAETIHTYLKTHQ,-0.0246
18,HMQLDLSDPSKNKLDSIVSLPIKSLKAVEANGEILFMSENGRFVLRGQLYDIWYKDTLDTSAQIQDAATRI,0.331
19,HMQLDLTSTLDHMYKQMRNDHPRALLMAVEKEMVLRALKETDGNQLRASDILGISRSTLRKRIEEFDINS,-1.24
20,HMQLEPLITSVIPVNFAKAGEVATTIKGKEVGLVSDRGSITAESRTNVLIVKDIKKNVDDISAMVKRLD,-0.00331
21,HMQLGEEAGDELVAIVRSVINDNDKALADYLAGKSSALKFLLGQVMRQTKGRADHALVQSLLEAELEAL,-0.0341
22,HMQLHDTMKRVYEALDISEQKLAESLGLKLSTIINWQKNGISKIGINKLNQTFGLDMQWILTGQGEPFI,-0.0293

# From the domain aggregation screens of Martell et al. (2025)
